According to paper PMC2119506:

Target: CSVTCG binding protein (human (endogenous in A549))
Test: radioligand binding

- percent inhibition of binding: 64 % inhibition
Substance: thrombospondin (from UniProt P07996 19-1170) (natural protein)
